{"source": "paper PMC10192129", "about": "“The thioesterase APT1 is a bidirectional-adjustment redox sensor” (Nature Communications, 2023)", "key": {"[1]": {"biological_target": "the molecule itself", "assay": "not stated; in vivo in M. truncatula under drought stress (Supplementary Fig. 2a)"}, "[2]": {"biological_target": "the molecule itself", "assay": "nonreducing SDS-PAGE with immunoblot; 6 × His-APT1 proteins after Ni purification from E. coli, no reducing agent; Tris-Tricine SDS-PAGE system"}, "[3]": {"biological_target": "the molecule itself", "assay": "nonreducing capillary electrophoresis immunoassay (Simple Jess) + other: nonreducing SDS-PAGE with immunoblot; root lysates of p35S:APT1-GFP/apt1 plants after 4 mM H2O2 for 15 min to 6 h (also 1 dpi with F. oxysporum); DTT-free buffers, samples not heated, anti-GFP"}}, "note": "“And” between values parts separate entries of the source, which are not always exact repeats. Equal entries are not always repeated.", "data": [{"protein": "APT1 in M. truncatula under drought stress (enzyme, acyl-protein thioesterase 1 (APT1) of Medicago truncatula; May be the same APT1-GFP as m9 (surmised); source: in vivo in M. truncatula) not shown", "values": [{"measurement": "stoichiometry N", "setting": "[1]", "value": 4}]}, {"protein": "6 × His-APT1 fusion protein (acyl-protein thioesterase 1, Medicago truncatula) (enzyme, acyl-protein thioesterase 1 (APT1, MtAPT1) of Medicago truncatula; cDNA amplified from ecotype A17; cysteines at C20, C22 and C37; The vector pET-30a(+) may add further vector-encoded residues (surmised); also called MtAPT1; pET-30a(+)-His-APT1) not shown", "values": [{"measurement": "stoichiometry N", "setting": "[2]", "value": "2 and 4"}]}, {"protein": "APT1-GFP fusion protein (p35S:APT1-GFP) in M. truncatula apt1 roots (enzyme, acyl-protein thioesterase 1 (APT1) of Medicago truncatula, cDNA from ecotype A17; Detected with anti-GFP; source: transgenic M. truncatula apt1 mutant roots (p35S:APT1-GFP), in lysate) not shown", "values": [{"measurement": "stoichiometry N", "setting": "[3]", "value": 4}]}]}
